167 variants from the RNAGym collection of RNA variant scans (doi:10.7554/elife.80360) can be followed below.

B1: HDV Ribozyme (parent)
chain: GGCCGGCAUGGUCCCAGCCUCCUCGCUGGCGCCGGCUGGGCAACAUUCCGAGGGGACCGUCCCCUCGGUAAUGGCGAAUGGGACCCA

Variants of B1 are the subject of this data set. The experiment in a line: self-cleavage, relative activity (ratio to wild type); higher = more cleavage; co-transcriptional.
As to C22U C61A, the self-cleavage amounted to 0.641.
As for C22U C61U, the self-cleavage worked out at 0.62.
Turning to U23G C48A, the self-cleavage came to 0.807.
The same measure for C22U G39A: 0.185; for C22U G35A: 0.109; for C22U G35U: 0.0511.
As for C22U G35C, the figure is 0; as for U23C C32G, 0.0415; as for U23C G50U, 0.789.
The same measure for U23C G50C: 0.864; for U23C G50A: 0.95; for U23G C33G: 0.161.
With U23C C49A, the self-cleavage is 0.987.
The same measure for U23C C49U: 0.852.
In the case of U23C C49G, the self-cleavage was found to be 0.655.
As for C22U C36G, the figure is 0.162.
As to C22U C36U, the self-cleavage stood at 0.254.
For the variant U23G A78C, the self-cleavage was determined as 0.106.
Take C22U C63A: the self-cleavage worked out at 0.697.
In the case of U23C G54U, the self-cleavage was 1.01.
As for U23C G54A, the figure is 0.888; as for U23A G34U, 0.149.
U23A G34A: the self-cleavage worked out at 0.121.
For U23A G34C, the self-cleavage is 0.339.
The same measure for C22U G29C: 0.0405; for U23G A51G: 0.8.
The same measure for U23G A51U: 0.705.
U23G A51C: the self-cleavage was determined as 0.63.
As for U23A A56C, the self-cleavage is 0.929.
As for U23C U46G, the figure is 0.739; as for U23C U46C, 0.745; as for U23C U46A, 0.538.
As for U23C G34U, the figure is 0.145.
The same measure for U23C C24A: 0.287; for U23A G80A: 0.18.
On to U23A G80U, for which the self-cleavage amounted to 0.113.
With U23G G53C, the self-cleavage stood at 0.759.
The same measure for U23G G53U: 0.866; for U23G G53A: 0.306; for C22U C62A: 0.623.
Regarding C22U C62G, the self-cleavage amounted to 0.431.
Take U23C U72G: the self-cleavage came out at 0.532.
As for U23C U72A, the figure is 0.776; as for U23A U65G, 1.18.
As for U23A U65C, the figure is 1.09; as for U23A G68U, 1.09; as for U23A G68C, 0.831.
U23A G68A: the self-cleavage was determined as 0.906.
The same measure for U23C U47A: 1.03; for U23C A77C: 0.256.
In the case of U23G C63G, the self-cleavage stood at 0.688.
For the variant U23G C36A, the self-cleavage amounted to 0.203.
C22U C58G: the self-cleavage came to 0.511.
In the case of U23C C84G, the self-cleavage was 0.739.
The same measure for C22U C85U: 0.577.
On to C22U U27G, for which the self-cleavage is 0.554.
As for C22U G55A, the figure is 0.717; as for U23C C85A, 1.01; as for C22U U23A, 0.845.
As to C22U U23G, the self-cleavage was 0.246.
In the case of U23C A78G, the self-cleavage worked out at 0.739.
In the case of U23C A78U, the self-cleavage was found to be 0.151.
The same measure for C22U G81C: 0.237; for C22U G81U: 0.04.
For the variant U23A C64U, the self-cleavage stood at 0.935.
As for U23A C64G, the figure is 1.03; as for U23A C48U, 1.21.
With U23A C48G, the self-cleavage came to 0.898.
As for C22U G38C, the figure is 0.122.
The same measure for C22U G38A: 0.931.
The same measure for U23C A71U: 0.808; for U23C A71C: 0.415; for U23C C57G: 0.6.
For U23C C57U, the self-cleavage turned out to be 0.743.
U23A G50C: the self-cleavage is 0.831.
As to U23A G50A, the self-cleavage was found to be 1.06.
With U23C A42U, the self-cleavage is 0.415.
As for U23C A42C, the figure is 0.161; as for C22U G34A, 0.0468.
As for C22U G34C, the figure is 0.0852.
The same measure for U23C C64G: 0.76; for U23C C64A: 0.743; for U23G G38A: 0.0923.
In the case of U23G G38C, the self-cleavage stood at 0.095.
As for U23G G38U, the figure is 0.0583.
Take U23C G74C: the self-cleavage was 0.277.
U23C G74A: the self-cleavage came to 0.217.
For the variant U23C G29A, the self-cleavage is 0.0665.
The same measure for U23C G29U: 0.142; for U23C C33G: 0; for U23C C33A: 0.0378.
For C22U U65A, the self-cleavage amounted to 0.831.
The same measure for C22U U65G: 0.845.
The same measure for U23A A51C: 0.731; for U23A A51G: 1.01.
Consider U23A G28U, for which the self-cleavage was 0.116.
For U23A U37G, the self-cleavage came to 0.415.
The same measure for U23A C66A: 0.883.
As for U23A C66U, the self-cleavage is 0.943.
Turning to C22U U79A, the self-cleavage stood at 0.0923.
The same measure for U23G C26U: 0.997.
As for U23A A83G, the figure is 0.767; as for U23A A83U, 0.449.
Consider U23C G52U, for which the self-cleavage is 1.11.
For the variant U23C G52A, the self-cleavage came out at 0.906.
On to U23G A70G, for which the self-cleavage came to 0.59.
As for C22U C86A, the figure is 0.779; as for U23C C58A, 1.18; as for U23C C58U, 0.928.
With U23C C58G, the self-cleavage was 0.673.
As for U23C U27A, the figure is 0.898.
As for U23A C44U, the self-cleavage is 0.566.
As for U23A C44A, the self-cleavage came to 0.612.
U23A C44G: the self-cleavage worked out at 0.594.
As for U23G G39U, the figure is 0.405; as for U23G G54C, 0.598; as for U23C G82U, 0.312.
U23C G82A: the self-cleavage was 0.314.
The same measure for U23A G82U: 0.425; for U23A G82C: 0.326.
The same measure for U23A G82A: 0.266; for U23A G55A: 0.969; for U23A G55C: 1.12.
The same measure for U23C A43U: 0.298.
With U23G C64A, the self-cleavage is 0.89.
As to U23G C64U, the self-cleavage was determined as 0.61.
The same measure for U23C A87U: 0.953; for U23C A83C: 0.302.
The same measure for U23C A83G: 0.742; for U23C A83U: 0.767; for U23G C86U: 0.877.
As for U23G C86G, the figure is 0.525.
U23G C86A: the self-cleavage worked out at 0.607.
On to U23C G25C, for which the self-cleavage was 0.138.
The same measure for U23C G25U: 0.158.
For U23C G25A, the self-cleavage amounted to 0.101.
With U23C G76C, the self-cleavage worked out at 1.05.
Turning to U23G C61U, the self-cleavage was found to be 0.923.
U23G C61A: the self-cleavage was 0.743.
The same measure for U23C G28U: 0.249.
Consider U23C G28C, for which the self-cleavage is 0.0639.
As for U23G G52A, the self-cleavage came out at 0.554.
As for U23A G31C, the figure is 0.44; as for U23A G31U, 0.271; as for C22U C75U, 0.214.
For C22U C75A, the self-cleavage stood at 0.0282.
For U23G C57U, the self-cleavage turned out to be 0.785.
The same measure for U23G C57G: 0.831.
For the variant U23G C57A, the self-cleavage amounted to 0.656.
Regarding U23A C36A, the self-cleavage is 0.177.
For the variant U23C C66G, the self-cleavage turned out to be 0.923.
Take U23C C66U: the self-cleavage was found to be 0.95.
As to U23C C86G, the self-cleavage worked out at 0.95.
The same measure for U23A G52C: 0.946; for U23A G52U: 0.819; for U23A C86U: 0.872.
Regarding U23A C86G, the self-cleavage was determined as 0.85.
With U23A C84G, the self-cleavage was 0.601.
The same measure for U23A C84U: 0.762; for U23A U46G: 1.06; for U23A U46C: 0.929.
As for U23A U46A, the figure is 0.623; as for C22U G82A, 0.101; as for U23G G35U, 0.283.
The same measure for U23G G35A: 0.324; for U23G G35C: 0.0639; for U23A G54U: 0.937.
